Results as given in patent US20120316071A1 (published 2012).
Numbering of substitutions follows the chain as printed. Names and notes keep the numbering of the source. Each block holds one binder with its values, some of them ahead of it.

How the values were obtained:
[1] = molecular target: T1, Recombinant Human DLL4 (R&D Systems Cat#1506-D4/CF) (human, UniProt Q9NR61 27-524); assay: ECL (MSD) multispot binding assay, Fab on immobilized recombinant human DLL4
T1 construct: also called rHuman DLL4; delta-like protein 4

[2] = molecular target: T1, Recombinant Human DLL4 (R&D Systems …); assay: ECL (MSD) binding assay, Fab on immobilized recombinant human DLL4
[3] = molecular target: T2, Recombinant Human DLL4 (delta-like protein 4) (human, UniProt Q9NR61 27-524); assay: ELISA, DLL4 coated on plate; Fab at 0.14 (head prints µM, text says nM)
T2 construct: Bought recombinant protein (R&D Systems Cat#1506-D4/CF); also called rHuman DLL4; Delta-like 4

[4] = molecular target: T2, Recombinant Human DLL4 (delta-like …); assay: ELISA, DLL4 coated on plate; Fab at 1.23 (head prints µM, text says nM)
[5] = molecular target: T2, Recombinant Human DLL4 (delta-like …); assay: ELISA, DLL4 coated on plate; Fab at 33.33 (head prints µM, text says nM)
[6] = molecular target: T2, Recombinant Human DLL4 (delta-like …); assay: ELISA, DLL4 coated on plate; Fab at 0.41 (head prints µM, text says nM)
[7] = molecular target: T2, Recombinant Human DLL4 (delta-like …); assay: ELISA, DLL4 coated on plate; Fab at 100 (head prints µM, text says nM)
[8] = molecular target: T2, Recombinant Human DLL4 (delta-like …); assay: ELISA, DLL4 coated on plate; Fab at 3.70 (head prints µM, text says nM)
[9] = molecular target: T2, Recombinant Human DLL4 (delta-like …); assay: ELISA, DLL4 coated on plate; Fab at 0.05 (head prints µM, text says nM)
[10] = molecular target: T2, Recombinant Human DLL4 (delta-like …); assay: ELISA, DLL4 coated on plate; Fab at 11.11 (head prints µM, text says nM)
[11] = molecular target: T3, Recombinant Human DLL4 (R&D Systems Cat#1506-D4/CF) (human, UniProt Q9NR61 27-524); assay: 96-well plate ECL, DLL4 coated
T3 construct: bought recombinant protein; also called rHuman DLL4; delta-like protein 4

[12] = molecular target: T4, rHuman CD44/Fc Chimera, CF (R&D Systems Cat#3660-CD) (human, UniProt P16070 21-220); assay: ECL Multispot (MSD), antigen spotted on plate, Fab 0.1 uM;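 note: ratio compares each antigen's electrochemiluminescence to the blank within the same well, with a ratio of at least 4 counted as a binding Fab hit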
T4 construct: Bought recombinant Fc chimera; not shown: Fc of the bought R&D Systems chimera

[13] = molecular target: T5, rHuman P-Cadherin/Fc Chimera, CF (R&D Systems Cat#861-PC) (human, UniProt P22223 108-654); assay: as above
T5 construct: Bought recombinant Fc chimera; not shown: Fc of the bought R&D Systems chimera

[14] = molecular target: T6, rHuman Notch-1/Fc Chimera, CF (R&D Systems Cat#3647-TK) (human, UniProt P46531 19-526); assay: as above
T6 construct: Bought recombinant Fc chimera; not shown: Fc of the bought R&D Systems chimera

[15] = molecular target: T7, rHuman Erythropoietin R/Fc Chimera, CF (R&D Systems Cat#963-ER) (human, UniProt P19235 25-250); assay: as above
T7 construct: Bought recombinant Fc chimera; also called EPO R; EPO R/Fc; not shown: Fc of the bought R&D Systems chimera
T7 sequence (looked up): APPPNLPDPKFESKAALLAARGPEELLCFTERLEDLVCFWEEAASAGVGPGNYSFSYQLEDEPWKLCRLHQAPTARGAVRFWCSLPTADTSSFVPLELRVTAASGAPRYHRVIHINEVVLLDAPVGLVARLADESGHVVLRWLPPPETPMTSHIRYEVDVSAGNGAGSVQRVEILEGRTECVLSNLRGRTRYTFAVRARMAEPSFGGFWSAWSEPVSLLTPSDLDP

[16] = molecular target: T8, rHuman HGF R/c-MET/Fc Chimera, CF (R&D Systems Cat#358-MT/CF) (human, UniProt P08581 25-932); assay: as above
T8 construct: Bought recombinant Fc chimera; also called HGF R/Fc; not shown: Fc of the bought R&D Systems chimera

[17] = molecular target: T9, rHuman IGF-1 sR, CF (R&D Systems Cat#391-GR) (human, UniProt P08069 31-932); assay: as above
T9 construct: Bought recombinant soluble receptor; also called insulin-like growth factor-1 soluble receptor

[18] = molecular target: T10, Recombinant Human DLL4 (R&D Systems Cat#1506-D4/CF) (human, UniProt Q9NR61 27-524); assay: as above
T10 construct: Bought recombinant protein; also called delta-like protein 4; rHuman DLL4

[19] = molecular target: T11, rHuman EGF R/Fc Chimera, CF (R&D Systems Cat#344-ER) (human, UniProt P00533 25-645); assay: as above
T11 construct: Bought recombinant Fc chimera; not shown: Fc of the bought R&D Systems chimera

[20] = molecular target: T12, rHuman ErbB2/Fc Chimera, CF (R&D Systems Cat#1129-ER) (human, UniProt P04626 23-652); assay: as above
T12 construct: Bought recombinant Fc chimera; not shown: Fc of the bought R&D Systems chimera

[21] = molecular target: T4, rHuman CD44/Fc Chimera, CF (R&D Systems …); assay: ECL Multispot (MSD), antigen spotted on plate, Fab 0.01 uM;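 note: electrochemiluminescence of each antigen spot divided by the blank of the same well, with a value of 4 or above scoring the Fab as a binding hit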
[22] = molecular target: T5, rHuman P-Cadherin/Fc Chimera, CF (R&D …); assay: as above
[23] = molecular target: T6, rHuman Notch-1/Fc Chimera, CF (R&D …); assay: as above
[24] = molecular target: T7, rHuman Erythropoietin R/Fc Chimera, CF …; assay: as above
[25] = molecular target: T8, rHuman HGF R/c-MET/Fc Chimera, CF (R&D …); assay: as above
[26] = molecular target: T9, rHuman IGF-1 sR, CF (R&D Systems …); assay: as above
[27] = molecular target: T10, Recombinant Human DLL4 (R&D Systems …); assay: as above
[28] = molecular target: T11, rHuman EGF R/Fc Chimera, CF (R&D …); assay: as above
[29] = molecular target: T12, rHuman ErbB2/Fc Chimera, CF (R&D …); assay: as above

T8 sequence (P08581 25-932, change not shown): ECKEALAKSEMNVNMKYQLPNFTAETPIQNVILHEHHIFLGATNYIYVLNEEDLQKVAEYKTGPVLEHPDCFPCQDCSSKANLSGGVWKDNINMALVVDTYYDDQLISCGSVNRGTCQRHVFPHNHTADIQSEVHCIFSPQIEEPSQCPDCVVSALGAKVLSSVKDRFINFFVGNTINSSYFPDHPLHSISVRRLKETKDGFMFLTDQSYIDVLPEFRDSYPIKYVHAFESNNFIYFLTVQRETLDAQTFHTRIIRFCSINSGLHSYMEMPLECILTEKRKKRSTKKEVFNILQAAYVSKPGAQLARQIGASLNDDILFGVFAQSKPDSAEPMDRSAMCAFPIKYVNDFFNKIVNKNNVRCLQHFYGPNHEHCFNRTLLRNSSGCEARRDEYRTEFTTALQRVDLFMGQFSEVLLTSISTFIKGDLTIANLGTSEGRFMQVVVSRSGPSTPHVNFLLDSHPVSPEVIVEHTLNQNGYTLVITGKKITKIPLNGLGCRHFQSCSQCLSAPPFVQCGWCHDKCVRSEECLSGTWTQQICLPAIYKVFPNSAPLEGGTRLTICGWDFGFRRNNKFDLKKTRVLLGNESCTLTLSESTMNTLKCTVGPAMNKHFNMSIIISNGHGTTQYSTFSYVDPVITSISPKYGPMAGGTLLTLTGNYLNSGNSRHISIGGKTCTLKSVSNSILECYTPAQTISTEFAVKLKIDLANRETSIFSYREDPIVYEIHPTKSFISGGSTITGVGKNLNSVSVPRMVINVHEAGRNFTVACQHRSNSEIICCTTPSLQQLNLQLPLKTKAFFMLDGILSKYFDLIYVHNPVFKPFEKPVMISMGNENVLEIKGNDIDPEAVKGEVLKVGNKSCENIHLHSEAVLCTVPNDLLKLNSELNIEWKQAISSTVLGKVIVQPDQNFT

ECL Signal/Blank [1]: 49.2 | ECL signal [2]: 588
B1: Fab VH5-51_IGHD5-18*01>3_IGHJ4*01 G100K/G104T (KT) & V3-4_IGLJ1*01 (Fab, V domains shown)
VH: EVQLVQSGAEVKKPGESLKISCKGSGYSFTSYWIGWVRQMPGKGLEWMGIIYPGDSDTRYSPSFQGQVTISADKSISTAYLQWSSLKASDTAMYYCARRKYSYTYDYFDYWGQGTLVTVSS
VL: QTVVTQEPSFSVSPGGTVTLTCGLSSGSVSTSYYPSWYQQTPGQAPRTLIYSTNTRSSGVPDRFSGSILGNKAALTITGAQADDESDYYCVLYMGSGISYVFGTGTKVTVL
notes: Tested as Fab; Fabs were expressed in E. coli from plasmid A (heavy chain CH1, His6 and Flag tags) and plasmid E (lambda CL); also called H:KT & L:wt

ELISA signal [3]: 0.03 | ELISA signal [4]: 0.03 | ELISA signal [5]: 0.19 | ELISA signal [6]: 0.02 | ELISA signal [7]: 0.34 | ELISA signal [8]: 0.03 | ELISA signal [9]: 0.02 | ELISA signal [10]: 0.07
B2: Fab VH5-51_IGHD5-18*01>3_IGHJ4*01 G100K/G104T G24T/S28R/G35V (H:KT TRV) & V3-4_IGLJ1*01 V91L/S96P (L:LP) (Fab, V domains shown)
VH: B1 VH with G24T, S28R, G35V
VL: B1 VL with V91L, S96P
notes: Tested as a Fab made in E. coli; also called H:KT TRV & L:LP

ELISA signal [3]: 0.02 | ELISA signal [4]: 0.03 | ELISA signal [5]: 0.35 | ELISA signal [6]: 0.01 | ELISA signal [7]: 0.69 | ELISA signal [8]: 0.06 | ELISA signal [9]: 0.02 | ELISA signal [10]: 0.17
B3: Fab VH5-51_IGHD5-18*01>3_IGHJ4*01 G100K/G104T G24T/S28R/G35V (H:KT TRV) & V3-4_IGLJ1*01 V91L/S96P S52G (Fab, V domains shown)
VH: B1 VH with G24T, S28R, G35V
VL: B1 VL with S52G, V91L, S96P
notes: Tested as a Fab made in E. coli; also called H:KT TRV & L:LP S52G

ELISA signal [3]: 0.02 | ELISA signal [4]: 0.03 | ELISA signal [5]: 0.12 | ELISA signal [6]: 0.03 | ELISA signal [7]: 0.24 | ELISA signal [8]: 0.03 | ELISA signal [9]: 0.02 | ELISA signal [10]: 0.06
B4: Fab VH5-51_IGHD5-18*01>3_IGHJ4*01 G100K/G104T G24T/S28R/G35V (H:KT TRV) & V3-4_IGLJ1*01 V91L/S96P S52M (Fab, V domains shown)
VH: B1 VH with G24T, S28R, G35V
VL: B1 VL with S52M, V91L, S96P
notes: Tested as a Fab made in E. coli; also called H:KT TRV & L:LP S52M

ELISA signal [3]: 0 | ELISA signal [4]: 0.01 | ELISA signal [5]: 0.08 | ELISA signal [6]: 0.01 | ELISA signal [7]: 0.16 | ELISA signal [8]: 0.03 | ELISA signal [9]: 0.01 | ELISA signal [10]: 0.04
B5: Fab VH5-51_IGHD5-18*01>3_IGHJ4*01 G100K/G104T G24T/S28R/G35V (H:KT TRV) & V3-4_IGLJ1*01 (Fab, V domains shown)
VH: B1 VH with G24T, S28R, G35V
VL: B1 VL
notes: Tested as a Fab made in E. coli; also called H:KT TRV & L:wt; Wildtype (light chain)

ECL Signal/Blank [1]: 102
B6: Fab VH5-51_IGHD5-18*01>3_IGHJ4*01 G100K/G104T T58A & V3-4_IGLJ1*01 (Fab, V domains shown)
VH: B1 VH with T58A
VL: B1 VL
notes: Tested as Fab; CH1 with His6/Flag tags (plasmid A) and lambda CL (plasmid E) come from the expression vectors

ECL Signal/Blank [1]: 55
B7: Fab VH5-51_IGHD5-18*01>3_IGHJ4*01 G100K/G104T S56A & V3-4_IGLJ1*01 (Fab, V domains shown)
VH: B1 VH with S56A
VL: B1 VL
notes: as for B6

ECL Signal/Blank [1]: 4.1
B8: Fab VH5-51_IGHD5-18*01>3_IGHJ4*01 G100K/G104T G54A & V3-4_IGLJ1*01 (Fab, V domains shown)
VH: B1 VH with G54A
VL: B1 VL
notes: as for B6

fold signal/noise ratio against the parent Fab [11]: ~3 fold
B9: Fab VH1-46_IGHD6-6*01_IGHJ1*01 S102A & L6_IGKJ1*01 (Fab, V domains shown)
VH: QVQLVQSGAEVKKPGASVKVSCKASGYTFTSYYMHWVRQAPGQGLEWMGIINPSGGSTSYAQKFQGRVTMTRDTSTSTVYMELSSLRSEDTAVYYCAREEYASSSAEYFQHWGQGTLVTVSS
VL: not shown
notes: Fab

fold signal/noise ratio against the parent Fab [11]: ~3 fold
B10: Fab VH1-46_IGHD6-6*01_IGHJ1*01 S103P & L6_IGKJ1*01 (Fab, V domains shown)
VH: B9 VH with A102S, S103P
VL: not shown
notes: Fab

fold signal/noise ratio against the parent Fab [11]: ≥ 4 fold
B11: Fab VH1-46_IGHD6-6*01_IGHJ1*01 S104F & L6_IGKJ1*01 (Fab, V domains shown)
VH: B9 VH with A102S, S104F
VL: not shown
notes: Fab

ECL signal/noise ratio [12]: 1.4 | ECL signal/noise ratio [13]: 1.4 | ECL signal/noise ratio [14]: 1.2 | ECL signal/noise ratio [15]: 1.4 | ECL signal/noise ratio [16]: 1 | ECL signal/noise ratio [17]: 1.2 | ECL signal/noise ratio [18]: 31.6 | ECL signal/noise ratio [19]: 1.2 | ECL signal/noise ratio [20]: 1 | ECL signal/noise ratio [21]: 1.3 | ECL signal/noise ratio [22]: 1.3 | ECL signal/noise ratio [23]: 1.4 | ECL signal/noise ratio [24]: 1.1 | ECL signal/noise ratio [25]: 1.2 | ECL signal/noise ratio [26]: 1.1 | ECL signal/noise ratio [27]: 4.5 | ECL signal/noise ratio [28]: 1.3 | ECL signal/noise ratio [29]: 0.9
B12: Fab VH1-46_IGHD6-6*01_IGHJ1*01 S103A & L6_IGKJ1*01 (Fab, V domains shown)
VH: B9 VH with A102S, S103A
VL: not shown
notes: Fab made in E. coli; The heavy chain variable region was cloned into Plasmid A (CH1, His6 and Flag tags) and the kappa light chain variable region into Plasmid C (kappa CL)
